According to publication PMC5606203:

Experiments:
Test in all cases: initial rates, colorimetric 2-naphthylamide release
[1] = substrate: C[C@H](N)C(=O)N[C@@H](CCCNC(=N)N)C(=O)Nc1ccc2ccccc2c1; format: biochemical, Arabidopsis thaliana; conditions: 25 °C, pH 7.9, Tris-HCl (I = 0.01), 75 µM CoCl2, DPP III site
[2] = substrate: N=C(N)NCCC[C@H](NC(=O)[C@@H](N)CCCNC(=N)N)C(=O)Nc1ccc2ccccc2c1; format: biochemical, Arabidopsis thaliana; conditions: 25 °C, pH 7.9, Tris-HCl (I = 0.01), 75 µM CoCl2, DPP III site
[3] = substrate: N=C(N)NCCC[C@H](NC(=O)[C@@H]1CCCN1)C(=O)Nc1ccc2ccccc2c1; format: biochemical, Arabidopsis thaliana; conditions: 25 °C, pH 7.9, Tris-HCl (I = 0.01), 75 µM CoCl2, DPP III site
[4] = substrate: C[C@H](N)C(=O)N[C@@H](CCCNC(=N)N)C(=O)Nc1ccc2ccccc2c1; format: biochemical, Physcomitrium patens; conditions: 25 °C, pH 7.4, Tris-HCl (I = 0.01), 75 µM CoCl2, DPP III site
[5] = substrate: N=C(N)NCCC[C@H](NC(=O)[C@@H](N)CCCNC(=N)N)C(=O)Nc1ccc2ccccc2c1; format: biochemical, Physcomitrium patens; conditions: 25 °C, pH 7.4, Tris-HCl (I = 0.01), 75 µM CoCl2, DPP III site

Row | Protein | Km [1] | kcat [1] | kcat/Km [1] | Km [2] | kcat [2] | kcat/Km [2] | Km [3] | kcat [3] | kcat/Km [3] | Km [4] | kcat [4] | Km [5] | kcat [5]
1 | AtND (Arabidopsis thaliana) (protein) MAEEHFDVLTKSGEKTGVSKPRGEVHRDGDYHRAVHVWIFVETTQQLLLQLRSDDKDSWPGQWDISSAGHISAGDTSLLSAQRELEEELGVKLPKDAFEKIFVFLQECVTNDGKFINNEFNDVYLVTILHPIPLEAFTLQKEEVSAVKYVPYEEYRNFLSKEDPAYVPYDVNGEYGKLFDIIRQRCQVNTEARSLSLQKQLQRYSPVTLEAKLTELSEADQKALGLIVKAAKIMDDIFYEQVWNSNPALRDWLKDHANASKLDKLKWDYFTINKSPWSSLDENEAFLSTADSAVKLLPGATKAIAGWKGLEYRAAFPVTKPPGANFYPPDMDKMEFTLWLNGLTEEQKHAATGFFSVIKRRSEANLDASDHLASSTKKLPDSNSDLYSIPYSEIYRPFLKKASEFLQKAGDLVSSPSLKKLLHSKAEAFLSNEYYESDIAWMDLDSKLDITIGPYETYEDEIFGYKATFETFIGIRDDKATADLKLFGDNLKLLEDNLPLESVYKSTDVSAAPIRVIQLIYNSGDVKGPQTVAYNLPNDEKIVKDRGTSMVMLKNVQEAKFEHILKPIAEITISKEQRGLVDFDSFFTHTICHECCHGIGPHTITLPGGQTSTVRKELQEVHSAMEEAKADIVGLWALKFLITKGLLSKSMVESMYVSFLAGCFRSIRFGLTEAHGKGQALQFNYLYEKGAFVFHEDSTFSVDFAKIEGAVESLSHEILTIQGKGDKNAATLLLNKYCTITGPLKTALENLERVKVPVDISPTFPLAEALMN | 5.0 ± 0.3 µM | 0.0415 ± 0.0035 s⁻¹ | 8300 M⁻¹ s⁻¹ | 3.25 ± 1.12 µM | 0.002 ± 1.67e-05 s⁻¹ | 615 M⁻¹ s⁻¹ | 40.85 ± 12.09 µM | 0.0372 ± 0.005 s⁻¹ | 908 M⁻¹ s⁻¹ |  |  |  | 
2 | PpND (Physcomitrium patens) (protein) MEGFQEEFSLGECLDVLTAAGLRTGDVKKRHLVHADGDYHRAVHVWLFVESTQELVLQKRADCKDSWPGLWDISSAGHISAGDTSLLTARRELQEELGITLPADAFEFLFDYLQECVINGGKYINNEYNDVYLVTLVDHIPVEAFTLQETEVSAVKYMKWQDYEDAVRKEDSSYVPCDVDGGYSALFSALRRRYEVDTSAKLEELQMHINRYVPVEIHGETTGLSKGDLLALSDTIRAAKLLDRIFLEQEWATNPALKDSLQAASGKSELDRLKFAYYLINKSPWSILDENDAFLTTADSAIQIAEGAVDESVTWGGKVRYRAAFPVEKAPGANFYPVDMDKEEFQAWKDGLDKGQQADATSFFTTIRRSGDIHDADGAKVHDLKIVPYSKEYATILKEASYLLHKAGDSAENPSLKRLLKAKADAFLSNDYYESDIAWMELDSPLDVTIGPYETYEDGLFGYKATFEAFIGIRDDEATQRLKLFSHNLQEMEDNLPMDDEYKSKTVTFSPIRVIQLLYNSGDVKGPQTVAFNLPNDDRIVKERGTAMVMLKNISQAKFDYILLPIANVCVEASQRGAVDFDSFFTHTICHECCHGIGPHNIVTPDGRASTVRLELQEVYSAIEEAKADIVGLWALHFLVDKGLLPRSLENTMYVSFLAGCFRSIRFGLEEAHGKGQALQFNFILEKGGFSYHPDGTFSVDYTKVRQCVEDLSRLILTIEAKGDKAGAEALLAKYAALTPQLQQSFDALQDVQVPVDIFPTFKLLDDIKL |  |  |  |  |  |  |  |  |  | 17.21 ± 0.75 µM | 0.0106 ± 0.00262 s⁻¹ | 10.63 ± 1.72 µM | 0.0137 ± 0.003 s⁻¹
